Assay results taken from patent US20260209387A1, “SINGLE-DOMAIN ANTIBODY FOR INHIBITION OF NEUTROPHIL ELASTASE ACTIVITY” (UNIVERSITE DE LIEGE, priority 2023, published 2026).

Columns and labels:
[1] = biological target: T1, human proteinase 3 (hPR3) (Homo sapiens, UniProt P24158); experiment: BLI binding to other serine proteases: hPR3; details: 50 nM protease
T1 construct: purchased EPC (Elastin Products Company)
T1 sequence (P24158 28-248): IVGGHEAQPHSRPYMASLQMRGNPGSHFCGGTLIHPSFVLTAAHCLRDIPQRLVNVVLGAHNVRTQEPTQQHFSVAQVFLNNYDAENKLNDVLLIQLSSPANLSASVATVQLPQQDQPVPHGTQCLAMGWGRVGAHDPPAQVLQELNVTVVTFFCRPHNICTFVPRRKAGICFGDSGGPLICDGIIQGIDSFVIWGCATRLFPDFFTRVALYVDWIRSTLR
Procedure: (§1) The specificity of NbE201 for hNE was also investigated by BLI. Biotinylated NbE201 (10 μg/mL) was immobilized on streptavidin biosensors (SA, Sartorius) following provider's indications. The biosensors were then immersed in a 50 nM solution of a serine protease. The proteases tested were human cathepsin G (hCG), human proteinase 3 (hPR3), mouse pancreatic elastase (mPE), mouse neutrophil elastase (mNE) and porcine pancreatic elastase (pPE). hNE was used a positive control. The association and dissociation were measured for 70 s and 320 s respectively, in kinetic buffer (KB, Sartorius). The experiments were carried out at 30° C. in 384-wells black-bottom microplates in polypropylene (Greiner Bio-One, Belgium) and with orbital agitation (1000 rpm).

hNE [2] = biological target: T2, hNE (Homo sapiens, UniProt P08246); experiment: hNE inhibition, hydrolysis of elastin (Elastin-CongoRed); type: biochemical
T2 construct: purchased Elastin Products Company (EPC)
T2 sequence (P08246 30-247): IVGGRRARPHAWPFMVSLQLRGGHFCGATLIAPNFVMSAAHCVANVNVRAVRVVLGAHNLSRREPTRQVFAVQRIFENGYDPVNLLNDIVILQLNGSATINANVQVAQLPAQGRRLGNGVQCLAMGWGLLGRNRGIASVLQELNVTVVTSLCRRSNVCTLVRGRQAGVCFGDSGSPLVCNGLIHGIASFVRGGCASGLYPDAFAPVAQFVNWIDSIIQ
Procedure: 1.6.2. Inhibition of the hydrolysis of elastin, a natural substrate of hNE. […] The samples were incubated for 16 hours at 37° C. with orbital shaking (900 rpm). The samples were then centrifuged at 90′000 g for 30 minutes at 4° C. to separate the insoluble Elastin from the digested and soluble molecule fragments. The soluble fraction was transferred into a 384-wells clear plate and the absorbance of Congo-red was measured at 495 nm in a SpectraMax M2e Microplates Reader (Molecular Devices, California, USA). The absorbance of the samples at different inhibitor: hNE molar ratios was compared to that measured in the absence of inhibitor, to determine the residual hNE activity. A sample of Elastin-Congo red without elastase was used as blank.

hNE [3] = biological target: T2, hNE; experiment: BLI specificity assay, hNE positive control; type: binding; details: 50 nM protease
Procedure: as §1

hNE [4] = biological target: T2, hNE; experiment: Competitive binding by BLI with AAT, EI3 and Nb-H7S-Nter-P1
Procedure: The biotinylated NbE201 (10 μg/ml in KB buffer) was immobilized on streptavidin biosensors (SA, Sartorius) following the provider's indications. A biosensor quenching step with biocytin 1 μg/mL was performed. […] The association was measured for 280 s in kinetic buffer (KB buffer, Sartorius). The experiments were carried out at 30° C. in 384-wells black-bottom microplates in polypropylene (Greiner Bio-One, Belgium) and with agitation (1000 rpm).

- binding to hPR3 by BLI [1]: does not bind to the other proteases
- inhibition of hNE activity, elastin hydrolysis (hNE [2]; [inhibitor]:[hNE] ratio 15): 80%
- binding to hNE by BLI (positive control) (hNE [3]): association signal
- binding of hNE in complex with AAT to immobilized NbE201 (hNE [4]; hNE 250 nM pre-incubated with AAT 1.5 μM): does not bind to NbE201
- binding of hNE pre-incubated with EI3 (MeOSuc-AAPV-CMK) to immobilized NbE201 (hNE [4]; hNE 250 nM, EI3 15 μM): unable to bind to NbE201
- binding of hNE pre-incubated with cAb-H7S-Nter-P1 to immobilized NbE201 (hNE [4]; hNE 250 nM, cAb-H7S-Nter-P1 1.5 μM): unable to bind to NbE201
B1: NbE201: anti-hNE ISVD (VHH/nanobody) from immunized lama, amino acid sequence SEQ ID NO: 4 (protein)
VHH: QVQLQESGGGLVQAGGSLRLSCVVPGRTISLYRMGWFRQAPGKEREFVAGINWSGDMTDYVDSVKGRFTISRDNAKNTVYLEMNSLKPEDTAIYYCTADPKLLPLADSSYGYWGQGTQVTVSS
- hNE residual activity, elastin hydrolysis (hNE [2]; [inhibitor]:[hNE] = 50): almost zero
